Reference: the supplement of paper PMC11316812
± gives the standard deviation of the averaged measurements.

Experiments:
hTERT-HMEC = assay: percentage of EdU-negative (G0-arrested) nuclei per well, 72 h; higher = more G0 arrest; details: reference: sequence is the full UniProt precursor, the tested protein was the secreted form or ectodomain
MCF7 = assay: as above; details: reference: sequence is the full UniProt precursor, the tested protein was the secreted form or ectodomain
[1] = protein concentration 0.0202725 µM
[2] = protein concentration 0.202725 µM
[3] = protein concentration 0.0225 µM
[4] = protein concentration 0.013725 µM
[5] = protein concentration 0.13725 µM
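Note: secreted proteins added to cultured cells, EdU pulse at the end, nuclei found by Hoechst imaging, EdU status from nuclear versus surrounding ring intensity ratio, PBS as neutral control.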

Question: Which “percentage of EdU-negative” value (hTERT-HMEC; [1]) does the source give for “MERDGCAGGGSRGGEGGRAPREGPAGNGRDRGRSHAAEAPGDPQAAASLLAPMDVGEEPLEKAARARTAKDPNTYKVLSLVLSVCVLTTILGCIFGLKPSCAKEVKSCKGRCFERTFGNCRCDAACVELGNCCLDYQETCIEPEHIWTCNKFRCGEKRLTRSLCACSDDCKDKGDCCINYSSVCQGEKSWVEEPCESINEPQCPAGFETPPTLLFSLDGFRAEYLHTWGGLLPVISKLKKCGTYTKNMRPVYPTKTFPNHYSIVTGLYPESHGIIDNKMYDPKMNASFSLKSKEKFNPEWYKGEPIWVTAKYQGLKSGTFFWPGSDVEINGIFPDIYKMYNGSVPFEERILAVLQWLQLPKDERPHFYTLYLEEPDSSGHSYGPVSSEVIKALQRVDGMVGMLMDGLKELNLHRCLNLILISDHGMEQGSCKKYIYLNKYLGDVKNIKVIYGPAARLRPSDVPDKYYSFNYEGIARNLSCREPNQHFKPYLKHFLPKRLHFAKSDRIEPLTFYLDPQWQLALNPSERKYCGSGFHGSDNVFSNMQALFVGYGPGFKHGIEADTFENIEVYNLMCDLLNLTPAPNNGTHGSLNHLLKNPVYTPKHPKEVHPLVQCPFTRNPRDNLGCSCNPSILPIEDFQTQFNLTVAEEKIIKHETLPYGRPRVLQKENTICLLSQHQFMSGYSQDILMPLWTSYTVDRNDSFSTEDFSNCLYQDFRIPLSPVHKCSFYKNNTKVSYGFLSPPQLNKNSSGIYSEALLTTNIVPMYQSFQVIWRYFHDTLLRKYAEERNGVNVVSGPVFDFDYDGRCDSLENLRQKRRVIRNQEILIPTHFFIVLTSCKDTSQTPLHCENLDTLAFILPHRTDNSESCVHGKHDSSWVEELLMLHRARITDVEHITGLSFYQQRKEPVSDILKLKTHLPTFSQED” here?
Answer: 4.82 ± 0.41%

Question: What about the “percentage of EdU-negative” value (hTERT-HMEC; [2]) of the same sequence?
Answer: 5.77 ± 0.8%

Question: What about the “percentage of EdU-negative” value (MCF7; [1]) of the same sequence?
Answer: 25.1 ± 0.47%

Question: And the “percentage of EdU-negative” value (MCF7; [2])?
Answer: 24.77 ± 0.21%

Question: Which results are given for “MPSLLVLTFSPCVLLGWALLAGGTGGGGVGGGGGGAGIGGGRQEREALPPQKIEVLVLLPQDDSYLFSLTRVRPAIEYALRSVEGNGTGRRLLPPGTRFQVAYEDSDCGNRALFSLVDRVAAARGAKPDLILGPVCEYAAAPVARLASHWDLPMLSAGALAAGFQHKDSEYSHLTRVAPAYAKMGEMMLALFRHHHWSRAALVYSDDKLERNCYFTLEGVHEVFQEEGLHTSIYSFDETKDLDLEDIVRNIQASERVVIMCASSDTIRSIMLVAHRHGMTSGDYAFFNIELFNSSSYGDGSWKRGDKHDFEAKQAYSSLQTVTLLRTVKPEFEKFSMEVKSSVEKQGLNMEDYVNMFVEGFHDAILLYVLALHEVLRAGYSKKDGGKIIQQTWNRTFEGIAGQVSIDANGDRYGDFSVIAMTDVEAGTQEVIGDYFGKEGRFEMRPNVKYPWGPLKLRIDENRIVEHTNSSPCKSSGGLEESAVTGIVVGALLGAGLLMAFYFFRKKYRITIERRTQQEESNLGKHRELREDSIRSHFSVA”?
Answer: percentage of EdU-negative (hTERT-HMEC; [3]): 4.9 ± 0.22%; percentage of EdU-negative (hTERT-HMEC; protein concentration 0.225 µM): 6.51 ± 0.27%; percentage of EdU-negative (MCF7; [3]): 24.88 ± 0.14%; percentage of EdU-negative (MCF7; protein concentration 0.225 µM): 24.5 ± 1%

Question: With “MLHLLALFLHCLPLASGDYDICKSWVTTDEGPTWEFYACQPKVMRLKDYVKVKVEPSGITCGDPPERFCSHENPYLCSNECDASNPDLAHPPRLMFDKEEEGLATYWQSITWSRYPSPLEANITLSWNKTVELTDDVVMTFEYGRPTVMVLEKSLDNGRTWQPYQFYAEDCMEAFGMSARRARDMSSSSAHRVLCTEEYSRWAGSKKEKHVRFEVRDRFAIFAGPDLRNMDNLYTRLESAKGLKEFFTLTDLRMRLLRPALGGTYVQRENLYKYFYAISNIEVIGRCKCNLHANLCSMREGSLQCECEHNTTGPDCGKCKKNFRTRSWRAGSYLPLPHGSPNACATAGSFGNCECYGHSNRCSYIDFLNVVTCVSCKHNTRGQHCQHCRLGYYRNGSAELDDENVCIECNCNQIGSVHDRCNETGFCECREGAAGPKCDDCLPTHYWRQGCYPNVCDDDQLLCQNGGTCLQNQRCACPRGYTGVRCEQPRCDPADDDGGLDCDRAPGAAPRPATLLGCLLLLGLAARLGR [Q96CW9]” as the sequence, how does the “percentage of EdU-negative” value (hTERT-HMEC; [3]) read?
Answer: 5.1 ± 0.37%

Question: What about the “percentage of EdU-negative” value (hTERT-HMEC; protein concentration 0.225 µM) of the same sequence?
Answer: 5.79 ± 0.16%

Question: What about the “percentage of EdU-negative” value (MCF7; [3]) of the same sequence?
Answer: 28.5 ± 0.47%

Question: And the “percentage of EdU-negative” value (MCF7; protein concentration 0.225 µM)?
Answer: 28.61 ± 0.091%

Question: How did the “percentage of EdU-negative” value (hTERT-HMEC; [3]) turn out when “MAAPGSARRPLLLLLLLLLLGLMHCASAAMFMVKNGNGTACIMANFSAAFSVNYDTKSGPKNMTFDLPSDATVVLNRSSCGKENTSDPSLVIAFGRGHTLTLNFTRNATRYSVQLMSFVYNLSDTHLFPNASSKEIKTVESITDIRADIDKKYRCVSGTQVHMNNVTVTLHDATIQAYLSNSSFSRGETRCEQDRPSPTTAPPAPPSPSPSPVPKSPSVDKYNVSGTNGTCLLASMGLQLNLTYERKDNTTVTRLLNINPNKTSASGSCGAHLVTLELHSEGTTVLLFQFGMNASSSRFFLQGIQLNTILPDARDPAFKAANGSLRALQATVGNSYKCNAEEHVRVTKAFSVNIFKVWVQAFKVEGGQFGSVEECLLDENSMLIPIAVGGALAGLVLIVLIAYLVGRKRSHAGYQTI” was run?
Answer: 4.801 ± 0.044%

Question: What about the “percentage of EdU-negative” value (hTERT-HMEC; protein concentration 0.225 µM) of the same sequence?
Answer: 7.68 ± 1.6%

Question: What about the “percentage of EdU-negative” value (MCF7; [3]) of the same sequence?
Answer: 27.7 ± 2.6%

Question: What about the “percentage of EdU-negative” value (MCF7; protein concentration 0.225 µM) of the same sequence?
Answer: 28.6 ± 2.1%

Question: Which results are given for “MATSMGLLLLLLLLLTQPGAGTGADTEAVVCVGTACYTAHSGKLSAAEAQNHCNQNGGNLATVKSKEEAQHVQRVLAQLLRREAALTARMSKFWIGLQREKGKCLDPSLPLKGFSWVGGGEDTPYSNWHKELRNSCISKRCVSLLLDLSQPLLPSRLPKWSEGPCGSPGSPGSNIEGFVCKFSFKGMCRPLALGGPGQVTYTTPFQTTSSSLEAVPFASAANVACGEGDKDETQSHYFLCKEKAPDVFDWGSSGPLCVSPKYGCNFNNGGCHQDCFEGGDGSFLCGCRPGFRLLDDLVTCASRNPCSSSPCRGGATCVLGPHGKNYTCRCPQGYQLDSSQLDCVDVDECQDSPCAQECVNTPGGFRCECWVGYEPGGPGEGACQDVDECALGRSPCAQGCTNTDGSFHCSCEEGYVLAGEDGTQCQDVDECVGPGGPLCDSLCFNTQGSFHCGCLPGWVLAPNGVSCTMGPVSLGPPSGPPDEEDKGEKEGSTVPRAATASPTRGPEGTPKATPTTSRPSLSSDAPITSAPLKMLAPSGSPGVWREPSIHHATAASGPQEPAGGDSSVATQNNDGTDGQKLLLFYILGTVVAILLLLALALGLLVYRKRRAKREEKKEKKPQNAADSYSWVPERAESRAMENQYSPTPGTDC [Q9NPY3]”?
Answer: percentage of EdU-negative (hTERT-HMEC; [3]): 5.36 ± 0.65%; percentage of EdU-negative (hTERT-HMEC; protein concentration 0.225 µM): 4.92 ± 0.54%; percentage of EdU-negative (MCF7; [3]): 25.7 ± 0.77%; percentage of EdU-negative (MCF7; protein concentration 0.225 µM): 26.9 ± 0.77%

Question: “MYSAPSACTCLCLHFLLLCFQVQVLVAEENVDFRIHVENQTRARDDVSRKQLRLYQLYSRTSGKHIQVLGRRISARGEDGDKYAQLLVETDTFGSQVRIKGKETEFYLCMNRKGKLVGKPDGTSKECVFIEKVLENNYTALMSAKYSGWYVGFTKKGRPRKGPKTRENQQDVHFMKRYPKGQPELQKPFKYTTVTKRSRRIRPTHPA” was tested. Which “percentage of EdU-negative” value (hTERT-HMEC; [4]) did it give?
Answer: 4.7 ± 1.1%

Question: And the “percentage of EdU-negative” value (hTERT-HMEC; [5])?
Answer: 5.41 ± 0.5%

Question: And the “percentage of EdU-negative” value (MCF7; [4])?
Answer: 24.26 ± 0.046%

Question: What about the “percentage of EdU-negative” value (MCF7; [5]) of the same sequence?
Answer: 22.8 ± 0.92%
